Bridge positions count the residues as written; N and C are the ends. Square brackets hold non-standard residues; d marks the D form. Primed or numbered codes have the meaning given here. Ends that are not written are not given here. R8 = C=CCCCCCC[C@@](C)(N)C(=O)O; S5 = C=CCCC[C@](C)(N)C(=O)O; FITC′ = not defined here; Nle = CCCC[C@H](N)C(=O)O

Assay [1] addresses T1, recombinant human E1 activating enzyme UBA1 (human, UniProt P22314 1-1058, limits assumed).
T1 construct: also called UBE1
T1 sequence: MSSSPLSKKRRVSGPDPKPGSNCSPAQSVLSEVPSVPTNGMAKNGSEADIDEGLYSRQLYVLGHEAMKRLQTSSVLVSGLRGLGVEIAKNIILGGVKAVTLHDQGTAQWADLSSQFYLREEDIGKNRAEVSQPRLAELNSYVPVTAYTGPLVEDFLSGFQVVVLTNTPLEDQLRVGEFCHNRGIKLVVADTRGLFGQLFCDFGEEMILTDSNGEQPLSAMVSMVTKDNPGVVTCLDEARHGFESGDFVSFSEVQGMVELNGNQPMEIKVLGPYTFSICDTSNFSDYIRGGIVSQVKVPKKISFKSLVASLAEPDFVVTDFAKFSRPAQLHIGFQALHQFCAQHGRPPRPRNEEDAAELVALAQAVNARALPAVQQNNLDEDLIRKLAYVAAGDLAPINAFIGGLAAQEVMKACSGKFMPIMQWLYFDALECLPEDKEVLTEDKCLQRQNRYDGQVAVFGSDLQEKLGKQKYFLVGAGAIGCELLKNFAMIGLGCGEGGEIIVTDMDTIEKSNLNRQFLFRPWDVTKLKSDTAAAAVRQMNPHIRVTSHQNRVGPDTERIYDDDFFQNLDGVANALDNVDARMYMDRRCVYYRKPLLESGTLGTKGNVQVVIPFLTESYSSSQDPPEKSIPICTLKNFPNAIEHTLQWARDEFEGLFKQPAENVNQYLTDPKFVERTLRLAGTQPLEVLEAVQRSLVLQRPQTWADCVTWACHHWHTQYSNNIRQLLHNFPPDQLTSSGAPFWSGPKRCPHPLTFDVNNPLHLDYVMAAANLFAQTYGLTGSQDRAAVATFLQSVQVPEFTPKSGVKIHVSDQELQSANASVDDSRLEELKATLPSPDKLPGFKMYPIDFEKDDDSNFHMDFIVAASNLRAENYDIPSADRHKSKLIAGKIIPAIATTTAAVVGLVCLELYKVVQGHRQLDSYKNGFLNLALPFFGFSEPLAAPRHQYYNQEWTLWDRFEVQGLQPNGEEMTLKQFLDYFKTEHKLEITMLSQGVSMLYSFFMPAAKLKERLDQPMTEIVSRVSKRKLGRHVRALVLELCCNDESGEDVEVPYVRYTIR
The experiment in a line: fluorescence polarization, without and with ubiquitin and ATP. From the text: In vitro Binding Assays: To assess the binding and affinity of ligands to acceptor proteins, a fluorescence polarization assay (FPA) can be used, for example. The FPA technique measures the molecular orientation and mobility using polarized light and fluorescent tracer.
A general note: Polarisation of emitted light reports the rotation of a fluorescent probe.

Assay [2] addresses T2, His-tagged UBA1 captured on Ni-NTA agarose beads (human, UniProt P22314 1-1058, limits assumed).
T2 construct: also called His-UBA1; His-UBE1; not shown: His tag
T2 sequence: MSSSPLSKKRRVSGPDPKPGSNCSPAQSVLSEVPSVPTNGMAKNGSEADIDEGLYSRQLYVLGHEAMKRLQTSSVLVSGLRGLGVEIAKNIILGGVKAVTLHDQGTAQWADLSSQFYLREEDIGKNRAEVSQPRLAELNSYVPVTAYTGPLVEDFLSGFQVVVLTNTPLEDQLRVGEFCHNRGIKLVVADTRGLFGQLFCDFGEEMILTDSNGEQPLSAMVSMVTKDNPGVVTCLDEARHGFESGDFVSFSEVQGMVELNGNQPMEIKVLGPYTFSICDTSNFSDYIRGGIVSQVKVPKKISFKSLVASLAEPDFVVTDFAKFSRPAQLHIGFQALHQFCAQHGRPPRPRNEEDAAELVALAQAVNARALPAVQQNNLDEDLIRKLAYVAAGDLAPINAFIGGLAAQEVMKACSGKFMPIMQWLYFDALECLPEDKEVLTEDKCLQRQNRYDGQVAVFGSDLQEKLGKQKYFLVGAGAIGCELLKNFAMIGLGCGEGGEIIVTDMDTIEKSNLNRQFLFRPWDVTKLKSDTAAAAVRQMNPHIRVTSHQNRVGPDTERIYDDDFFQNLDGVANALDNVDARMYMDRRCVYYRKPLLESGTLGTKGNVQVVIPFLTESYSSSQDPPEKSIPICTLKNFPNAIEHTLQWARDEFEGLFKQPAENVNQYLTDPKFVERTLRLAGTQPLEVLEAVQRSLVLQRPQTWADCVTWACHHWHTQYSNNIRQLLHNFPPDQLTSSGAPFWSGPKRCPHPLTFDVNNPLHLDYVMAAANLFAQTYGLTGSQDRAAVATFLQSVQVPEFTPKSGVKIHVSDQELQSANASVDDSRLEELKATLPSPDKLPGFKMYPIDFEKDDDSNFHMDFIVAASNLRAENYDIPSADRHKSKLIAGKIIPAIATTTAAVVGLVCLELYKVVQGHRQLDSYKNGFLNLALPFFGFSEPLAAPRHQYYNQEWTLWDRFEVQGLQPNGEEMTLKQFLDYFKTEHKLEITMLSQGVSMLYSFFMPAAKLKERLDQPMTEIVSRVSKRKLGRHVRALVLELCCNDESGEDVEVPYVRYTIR
The experiment in a line: fluorescence microscopy of Ni-NTA agarose beads carrying His-UBA1; 10 µM FITC-labeled peptide. As for the experimental part:
Fluorescence Microscopy: His-tagged UBA1 (25 μg) was incubated with Ni-NTA agarose beads (100 μl) (Invitrogen™ R90110) in PBS for 30 min. […] Beads were plated in 386-well plate format (10 μl/well) (Corning 384-well High Content Imaging Glass Bottom Microplate) and imaged with an Olympus wide-field epifluorescence microscope, a 63× LCPlanFL NA 0.7 objective, and a CoolSNAP DYNO camera.

The target of assay [3] is T3, His-tagged p53 (UniProt P04637 1-393, limits assumed).
T3 construct: Control protein captured on Ni-NTA agarose beads; also called His-p53; unrelated protein control; not shown: His tag
The experiment in a line: fluorescence microscopy of Ni-NTA agarose beads carrying His-p53, incubated with FITC-labeled peptide.

Assay [4] deals with T1, recombinant human E1 activating enzyme …. The experiment in a line: streptavidin-biotin pull-down, silver-stained protein gel. As for the experimental part:
(§1) 30 μL of pre-equilibrated streptavidin agarose beads were then added and incubated for an additional 1.5 hours at 4° C. The beads were pelleted by centrifugation and washed three times with NP-40 buffer (20 mM HEPES, pH 7.4, 50 mM NaCl, 5 mM DTT, 0.5% [v/v] NP-40) before eluting the protein sample from the beads by heating at 70° C. for 10 min in 3×SDS loading buffer. Samples were subjected to electrophoresis and silver staining (Pierce 24612). […] 30 μL of pre-equilibrated streptavidin agarose beads (ThermoFisher 20357) were then added and incubated for an additional 1.5 hours at 4° C. The beads were pelleted by centrifugation and washed three times with NP-40 buffer (20 mM HEPES, pH 7.4, 50 mM NaCl, 5 mM DTT, 0.5% [v/v] NP-40) before eluting the protein sample from the beads by heating at 70° C. for 10 min in 3×SDS loading buffer. Proteins were separated by SDS-PAGE gel electrophoresis and detected by western blot against UBE1 (Abcam ab34711). […] Conjugation of ubiquitin to E2 by E1 is monitored by conversion of free E2 (17 kDa) to E2˜ubiquitin conjugate (26 kDa). Quantitation of percent inhibition was calculated from densitometry of silver stain images.

Assay [5] deals with T4, native UBA1 in HeLa cell lysate (human, UniProt P22314 2-1058, limits assumed).
T4 construct: Endogenous protein in HeLa cell lysate or S100 fraction; also called UBE1
T4 sequence: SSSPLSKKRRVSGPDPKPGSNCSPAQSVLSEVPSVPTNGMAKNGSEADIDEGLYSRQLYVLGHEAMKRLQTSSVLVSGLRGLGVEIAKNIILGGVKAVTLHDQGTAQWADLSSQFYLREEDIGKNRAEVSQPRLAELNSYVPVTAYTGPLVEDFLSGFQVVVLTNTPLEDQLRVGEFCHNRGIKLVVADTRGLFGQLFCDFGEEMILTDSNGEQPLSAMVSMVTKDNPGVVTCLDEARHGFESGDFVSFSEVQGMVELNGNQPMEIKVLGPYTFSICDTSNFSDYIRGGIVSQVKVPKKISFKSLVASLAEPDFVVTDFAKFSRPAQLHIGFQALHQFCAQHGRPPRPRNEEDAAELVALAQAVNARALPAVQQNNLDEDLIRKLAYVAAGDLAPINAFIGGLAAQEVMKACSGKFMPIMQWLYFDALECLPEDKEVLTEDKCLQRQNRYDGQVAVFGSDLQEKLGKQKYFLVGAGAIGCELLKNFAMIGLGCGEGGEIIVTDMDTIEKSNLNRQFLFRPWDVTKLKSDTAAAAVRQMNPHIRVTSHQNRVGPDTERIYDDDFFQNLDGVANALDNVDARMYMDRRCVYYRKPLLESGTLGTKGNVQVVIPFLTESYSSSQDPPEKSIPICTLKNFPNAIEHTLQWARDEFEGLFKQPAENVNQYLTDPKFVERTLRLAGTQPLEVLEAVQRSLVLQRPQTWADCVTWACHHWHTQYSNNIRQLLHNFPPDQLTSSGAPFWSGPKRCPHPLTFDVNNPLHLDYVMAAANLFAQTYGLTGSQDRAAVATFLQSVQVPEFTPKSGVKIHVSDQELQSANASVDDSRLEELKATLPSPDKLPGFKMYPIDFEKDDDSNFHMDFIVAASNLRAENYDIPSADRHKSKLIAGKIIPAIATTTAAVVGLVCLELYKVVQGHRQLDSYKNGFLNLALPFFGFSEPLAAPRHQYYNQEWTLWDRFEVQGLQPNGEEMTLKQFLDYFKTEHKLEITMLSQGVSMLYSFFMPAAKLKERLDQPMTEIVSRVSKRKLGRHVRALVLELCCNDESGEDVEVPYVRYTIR
The experiment in a line: streptavidin-biotin pull-down from HeLa cell lysate, western blot. As for the experimental part:
as §1

T3 sequence (P04637 whole entry): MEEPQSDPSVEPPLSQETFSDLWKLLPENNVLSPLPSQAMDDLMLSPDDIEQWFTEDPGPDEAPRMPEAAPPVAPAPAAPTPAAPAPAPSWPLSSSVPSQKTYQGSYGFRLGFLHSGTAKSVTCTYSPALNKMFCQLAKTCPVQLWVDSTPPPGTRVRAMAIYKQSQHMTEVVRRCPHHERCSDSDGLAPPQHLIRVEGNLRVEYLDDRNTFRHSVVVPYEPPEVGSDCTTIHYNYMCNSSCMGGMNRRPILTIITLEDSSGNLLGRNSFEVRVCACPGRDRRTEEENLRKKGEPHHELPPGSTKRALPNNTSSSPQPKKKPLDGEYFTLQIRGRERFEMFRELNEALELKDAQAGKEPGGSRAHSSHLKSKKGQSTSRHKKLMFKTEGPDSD

B1: FITC-SAH-UBE2A (FITC conjugated to SEQ ID NO: 132) (peptide)
peptide: [Nle]STP[R8]RRRL[Nle]R[S5]FKRLQ-{FITC′}
modifications: staple 5-12
notes: also called FITC-labeled SAH-UBE2A-11; FITC-labeled peptide
Take B1: the binding result in assay [1] is listed as “binds”; in assay [2] it was “binds”; in assay [3] it was “no binding (tested: 10 µM)”.

B2: C-terminally biotinylated SAH-UBE2A (peptide)
peptide: Ac-[Nle]STP[R8]RRRL[Nle]R[S5]FKRLQ-biotin
modifications: staple 5-12
notes: also called biotinylated peptide; not shown: C-terminal biotin handle
B2: the binding result in assay [4] and in assay [5] was “binds” each time.
